Reference: patent US20130196373
Where two headings read alike, the source gives them in different places.

Experiments:
[1] = test system: TALEN 101238 (Xanthomonas (engineered)?); test: cell_activity; conditions: paired with 101236, K562
[2] = test system: TALEN 101238a (Xanthomonas (engineered)?); test: cell_activity; conditions: paired with 101236, K562; SELEX preference improved
[3] = test system: TALEN 101238b (Xanthomonas (engineered)?); test: cell_activity; conditions: paired with 101236, K562; SELEX preference improved
[4] = test system: TALEN 101238c (Xanthomonas (engineered)?); test: cell_activity; conditions: paired with 101236, K562; SELEX preference improved
[5] = test system: TALEN 101238d (Xanthomonas (engineered)?); test: cell_activity; conditions: paired with 101236, K562
[6] = test system: TALEN 101238e (Xanthomonas (engineered)?); test: cell_activity; conditions: paired with 101236, K562; SELEX not interpretable
[7] = test system: TALE 101042-BfiI (Xanthomonas/Bacillus (engineered)?); test: cell_activity; conditions: paired with 101047-BfiI, K562
[8] = test system: TALE 101043-BfiI (Xanthomonas/Bacillus (engineered)?); test: cell_activity; conditions: paired with 101047-BfiI, K562
[9] = test system: TALE TL_CTTC RD-RG-KG-AD (Xanthomonas (engineered)?); conditions: ELISA; site composed
[10] = test system: TALE TL_CTTC RD-RG-MG-ND (Xanthomonas (engineered)?); conditions: ELISA; site composed
[11] = test system: TALE TL_CTTC RD-RG-RG-KD (Xanthomonas (engineered)?); conditions: ELISA; site composed
[12] = test system: TALE 101047-BfiI (Xanthomonas/Bacillus (engineered)?); test: cell_activity; conditions: paired with 101043-BfiI, K562
[13] = test system: TALEN 101047 (R) (Xanthomonas (engineered)?); test: cell_activity; conditions: paired with 101041, K562
[14] = test system: TALEN 102109 (R*) (Xanthomonas (engineered)?); test: cell_activity; conditions: paired with 102204, K562
[15] = test system: TALEN 3-1 (Xanthomonas (engineered)?); test: cell_activity; conditions: paired with 101041
[16] = test system: TALEN 4-1 (Xanthomonas (engineered)?); test: cell_activity; conditions: paired with 101041
[17] = test system: TALEN Condition 3 lane 8 (Xanthomonas (engineered)?); test: cell_activity; conditions: paired with 101041
[18] = test system: TALEN Condition 4 lane 64 (Xanthomonas (engineered)?); test: cell_activity; conditions: paired with 101041
[19] = test system: TALEN 101664 (R551-C17-KKR) (Xanthomonas (engineered)?); test: cell_activity; conditions: paired with 101662, 12 bp gap, K562
[20] = test system: TALE TL_TCAT AA-KD-KI-MG (Xanthomonas (engineered)?); conditions: ELISA
[21] = test system: TALE TL_TCAT QG-AD-HI-KG (Xanthomonas (engineered)?); conditions: ELISA
[22] = test system: TALE TL_TCAT QG-KD-KI-AA (Xanthomonas (engineered)?); conditions: ELISA
[23] = test system: TALE TL_TCAT canonical (Xanthomonas (engineered)?); conditions: ELISA, AFU 204
[24] = test system: TALEN 1-1 (Xanthomonas (engineered)?); test: cell_activity; conditions: paired with 101047
[25] = test system: TALEN 101041 (L) (Xanthomonas (engineered)?); test: cell_activity; conditions: paired with 101047, K562
[26] = test system: TALEN 101662 (L538-C17-ELD) (Xanthomonas (engineered)?); test: cell_activity; conditions: paired with 101664, 12 bp gap, K562
[27] = test system: TALEN 102204 (L*) (Xanthomonas (engineered)?); test: cell_activity; conditions: paired with 102109, K562
[28] = test system: TALEN 102297 (L538NC-C17-ELD) (Xanthomonas (engineered)?); test: cell_activity; conditions: paired with 101664, 12 bp gap, K562
[29] = test system: TALEN 2-1 (Xanthomonas (engineered)?); test: cell_activity; conditions: paired with 101047
[30] = test system: TALEN Condition 1 lane 40 (Xanthomonas (engineered)?); test: cell_activity; conditions: paired with 101047
[31] = test system: TALEN Condition 2 lane 45 (Xanthomonas (engineered)?); test: cell_activity; conditions: paired with 101047
[32] = test system: TALE 101048-BfiI (Xanthomonas/Bacillus (engineered)?); test: cell_activity; conditions: paired with 101043-BfiI, K562
[33] = test system: CXA TALE KAK S11K (repeat 5) (Xanthomonas (engineered)?)
[34] = test system: CXA TALE KKD S11K (repeat 5) (Xanthomonas (engineered)?)
[35] = test system: CXA TALE KRD S11K (repeat 5) (Xanthomonas (engineered)?)
[36] = test system: CXA TALE KRI S11K (repeat 5) (Xanthomonas (engineered)?)
[37] = test system: CXA TALE NRD S11N (repeat 5) (Xanthomonas (engineered)?)
[38] = test system: CXA TALE NRI S11N (repeat 5) (Xanthomonas (engineered)?)
[39] = test system: CXA TALE SAK (Xanthomonas (engineered)?)
[40] = test system: CXA TALE SHD (Xanthomonas (engineered)?)
[41] = test system: CXA TALE SKD (Xanthomonas (engineered)?)
[42] = test system: CXA TALE SNG (Xanthomonas (engineered)?)
[43] = test system: CXA TALE SNI (pos 11-13) (Xanthomonas (engineered)?)
[44] = test system: CXA TALE SNN (Xanthomonas (engineered)?)
[45] = test system: CXA TALE SRD (Xanthomonas (engineered)?)
[46] = test system: CXA TALE SRI (Xanthomonas (engineered)?)
[47] = test system: TALE TR_ATAC CI-VA-HI-ND (Xanthomonas (engineered)?); conditions: ELISA; site composed
[48] = test system: TALE TR_ATAC HI-VA-CI-ND (Xanthomonas (engineered)?); conditions: ELISA; site composed
[49] = test system: TALE TR_ATAC KI-MG-HI-RD (Xanthomonas (engineered)?); conditions: ELISA; site composed
[50] = test system: TALE TR_ATTG CI-KG-QG-HN (Xanthomonas (engineered)?); conditions: ELISA; site composed
[51] = test system: TALE TR_ATTG CI-MG-KG-HN (Xanthomonas (engineered)?); conditions: ELISA; site composed
[52] = test system: TALE TR_ATTG HI-RG-MG-HN (Xanthomonas (engineered)?); conditions: ELISA; site composed
[53] = test system: TALE TR_CAGA AD-HI-GN-HI (Xanthomonas (engineered)?); conditions: ELISA; site composed
[54] = test system: TALE TR_CAGA KD-HI-FN-HI (Xanthomonas (engineered)?); conditions: ELISA; site composed
[55] = test system: TALE TR_CAGA ND-HI-HN-KI (Xanthomonas (engineered)?); conditions: ELISA; site composed
[56] = test system: TALE TR_CAGC ND-KI-FN-AD (Xanthomonas (engineered)?); conditions: ELISA
[57] = test system: TALE TR_CAGC RD-HI-GN-ND (Xanthomonas (engineered)?); conditions: ELISA
[58] = test system: TALE TR_CAGC RD-HI-HN-ND (Xanthomonas (engineered)?); conditions: ELISA
[59] = test system: TALE TR_CAGC canonical (Xanthomonas (engineered)?); conditions: ELISA, AFU 649
[60] = test system: TALE TR_CCTG AD-RD-HG-HN (Xanthomonas (engineered)?); conditions: ELISA; site composed
[61] = test system: TALE TR_CCTG ND-KD-HG-HN (Xanthomonas (engineered)?); conditions: ELISA; site composed
[62] = test system: TALE TR_CCTG RD-ND-AA-HN (Xanthomonas (engineered)?); conditions: ELISA; site composed
[63] = test system: TALE TR_CCTG canonical (Xanthomonas (engineered)?); conditions: ELISA, AFU 1020; site composed
[64] = test system: TALE TR_TACA KG-KI-KD-CI (Xanthomonas (engineered)?); conditions: ELISA; site composed
[65] = test system: TALE TR_TACA RG-HI-RD-KI (Xanthomonas (engineered)?); conditions: ELISA; full site composed from anchor + subsite
[66] = test system: TALE TR_TACA VA-CI-ND-HI (Xanthomonas (engineered)?); conditions: ELISA; full site composed from anchor + subsite
[67] = test system: TALE TR_TACA canonical (Xanthomonas (engineered)?); conditions: ELISA, AFU 779; site composed

PITX3 target of 101238
activity [1]: 34 % indels
activity [2]: 54 % indels
activity [3]: 50 % indels
activity [4]: 44 % indels
activity [5]: 43 % indels
activity [6]: 22 % indels

TACACCTGCAGCTCT (double strand) [101042 half-site]
activity [7]: 0.11 % indels

TACACCTGCAGCTCTCAT (double strand) [101043 half-site]
activity [8]: 0.75 % indels

TCTTCATCCT (double strand) [TL CTTC target]
binding signal (fold vs canonical) [9]: 8.22
binding signal (fold vs canonical) [10]: 0.16
binding signal (fold vs canonical) [11]: 13.8

TCTTCCAGAATTGATACT (double strand) [CCR5 R557 half-site]
activity [12]: 0.75 % indels
activity [13]: 50.6 % indels
activity [14]: 65.2 % indels
activity [15]: 56.3 % NHEJ
activity [16]: 59.5 % NHEJ
activity [17]: 0 % NHEJ
activity [18]: 0 % NHEJ

TGATACTGACTGT (double strand) [CCR5 R551 half-site]
activity [19]: 59 % NHEJ

TTCATATCCT (double strand) [TL TCAT target]
binding signal (fold vs canonical) [20]: 0.05
binding signal (fold vs canonical) [21]: 2.26
binding signal (fold vs canonical) [22]: 2.34
binding signal (fold vs canonical) [23]: 1

TTCATTACACCTGCAGCT (double strand) [CCR5 L538 half-site]
activity [24]: 36.6 % NHEJ
activity [25]: 50.6 % indels
activity [26]: 59 % NHEJ
activity [27]: 65.2 % indels
activity [28]: 56.2 % NHEJ
activity [29]: 64.1 % NHEJ
activity [30]: 0 % NHEJ
activity [31]: 0 % NHEJ

TTCTTCCAGAATTGAT (double strand) [101048 half-site]
activity [32]: 0.27 % indels

TTGACAATCCT (double strand) [CAA target]
binding signal (normalized ELISA) [33]: 0.05
binding signal (normalized ELISA) [34]: 0.25
binding signal (normalized ELISA) [35]: 0.48
binding signal (normalized ELISA) [36]: 0.74
binding signal (normalized ELISA) [37]: 0.07
binding signal (normalized ELISA) [38]: 0
binding signal (normalized ELISA) [39]: 0.01
binding signal (normalized ELISA) [40]: 0.38
binding signal (normalized ELISA) [41]: 0.14
binding signal (normalized ELISA) [42]: 0.63
binding signal (normalized ELISA) ([43]; flanking RVDs inferred from anchors): 0.96
binding signal (normalized ELISA) [44]: 1.12
binding signal (normalized ELISA) [45]: 0.26
binding signal (normalized ELISA) [46]: 0.51

TTGACATACT (double strand) [TR ATAC target]
binding signal (fold vs canonical) [47]: 1.4
binding signal (fold vs canonical) [48]: 1.36
binding signal (fold vs canonical) [49]: 0.47

TTGACATTGT (double strand) [TR ATTG target]
binding signal (fold vs canonical) [50]: 1.12
binding signal (fold vs canonical) [51]: 1.22
binding signal (fold vs canonical) [52]: 0

TTGACCAGAT (double strand) [TR CAGA target]
binding signal (fold vs canonical) [53]: 0.04
binding signal (fold vs canonical) [54]: 1.3
binding signal (fold vs canonical) [55]: 1.28

TTGACCAGCT (double strand) [TR CAGC target]
binding signal (fold vs canonical) [56]: 0
binding signal (fold vs canonical) [57]: 0.4
binding signal (fold vs canonical) [58]: 1.52
binding signal (fold vs canonical) [59]: 1

TTGACCATCCT (double strand) [CCA target]
binding signal (normalized ELISA) [34]: 0.64
binding signal (normalized ELISA) [35]: 0.85
binding signal (normalized ELISA) [36]: 0.28
binding signal (normalized ELISA) [37]: 0.53
binding signal (normalized ELISA) [40]: 1.29
binding signal (normalized ELISA) [41]: 0.5
binding signal (normalized ELISA) [42]: 0.15
binding signal (normalized ELISA) [43]: 0.06
binding signal (normalized ELISA) [44]: 0.01
binding signal (normalized ELISA) [45]: 0.91
binding signal (normalized ELISA) [46]: 0.04

TTGACCCTGT (double strand) [TR CCTG target]
binding signal (fold vs canonical) [60]: 1.3
binding signal (fold vs canonical) [61]: 1.07
binding signal (fold vs canonical) [62]: 0.02
binding signal (fold vs canonical) [63]: 1

TTGACGATCCT (double strand) [CGA target]
binding signal (normalized ELISA) [33]: 0.28
binding signal (normalized ELISA) [39]: 0.21
binding signal (normalized ELISA) [40]: 0.01
binding signal (normalized ELISA) [42]: 0.11
binding signal (normalized ELISA) [43]: 0.01
binding signal (normalized ELISA) [44]: 0.76

TTGACTACAT (double strand) [TR TACA target]
binding signal (fold vs canonical) [64]: 0.48
binding signal (fold vs canonical) [65]: 1.62
binding signal (fold vs canonical) [66]: 1.57
binding signal (fold vs canonical) [67]: 1

TTGACTATCCT (double strand) [CTA target]
binding signal (normalized ELISA) [40]: 0.12
binding signal (normalized ELISA) [42]: 0.99
binding signal (normalized ELISA) [43]: 0.02
binding signal (normalized ELISA) [44]: 0.03
